What was measured:
[1] = biological target: HIV-1 IIIB viral envelope protein gp41 (HIV-1 IIIB) (UniProt P04578); assay: cell-based or functional assay
[2] = biological target: HIV-1 IIIB viral envelope protein gp41 (HIV-1 IIIB, UniProt P04578 512-856); assay: cell-based or functional assay

Q: With “FB006M conjugated with human serum albumin (HSA) (from UniProt P02768 25-609)” as the molecule, how does the IC50 (nM), 50% viral inhibition drug concentration, HIV-1 IIIB in fresh human PBMC cultures [1] read?
A: The IC50 (nM), 50% viral inhibition drug concentration, HIV-1 IIIB in fresh human PBMC cultures was 3.94 nM.

Q: What about the fold increase of the antiviral IC50 against FB006 [1] of the same molecule?
A: Its fold increase of the antiviral IC50 against FB006 is 2.8 fold.

Q: With Ac-SLEQIWNNMTWEEWDREINNYTELIHELIEESQNQQEKNEQELL-NH2 [FB005] as the molecule, how does the “IC50 (nM), 50% viral inhibition drug concentration, HIV-1 IIIB in fresh human PBMC cultures” value [2] read?
A: Its value is 0.93 nM.

Q: Ac-WEEWDREINNYTKLIHELIEESQNQQEKNEQELL-NH2 [FB006] was tested. Which “IC50 (nM), 50% viral inhibition drug concentration, HIV-1 IIIB in fresh human PBMC cultures” value [2] did it give?
A: The value was 1.41 nM.
